Measurements from article PMC10397247.
Read-outs that look alike come from different tables or passages of the source.

Columns and labels:
APC2405-AA = molecular target: T1, APC2405-AA; assay: two-hybrid library CCmax;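 note: natural log of median RNA to DNA barcode read ratio; higher means stronger binding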
T1 chain: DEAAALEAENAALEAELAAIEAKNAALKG

APC3645-AA = molecular target: T2, APC3645-AA; assay: two-hybrid library CCmax; settings: mean of both orientations;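 note: natural log of median RNA to DNA barcode read ratio; higher means stronger binding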
T2 chain: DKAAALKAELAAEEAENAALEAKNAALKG

APC4011-AA = molecular target: T3, APC4011-AA; assay: two-hybrid library CCmax; settings: mean of both orientations;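 note: natural log of median RNA to DNA barcode read ratio; higher means stronger binding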
T3 chain: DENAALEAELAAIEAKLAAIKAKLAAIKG

APC4264-AA = molecular target: T4, APC4264-AA; assay: two-hybrid library CCmax; settings: mean of both orientations;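 note: natural log of median RNA to DNA barcode read ratio; higher means stronger binding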
T4 chain: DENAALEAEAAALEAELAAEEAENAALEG

APC4436-AA = molecular target: T5, APC4436-AA; assay: two-hybrid library CCmax; settings: mean of both orientations;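 note: natural log of median RNA to DNA barcode read ratio; higher means stronger binding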
T5 chain: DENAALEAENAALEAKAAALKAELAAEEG

APC5383-AA = molecular target: T6, APC5383-AA; assay: two-hybrid library CCmax; settings: mean of both orientations;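 note: natural log of median RNA to DNA barcode read ratio; higher means stronger binding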
T6 chain: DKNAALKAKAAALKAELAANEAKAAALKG

APC6108-AA = molecular target: T7, APC6108-AA; assay: two-hybrid library CCmax; settings: mean of both orientations
T7 chain: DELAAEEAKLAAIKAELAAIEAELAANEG

APC7099-AA = molecular target: T8, APC7099-AA; assay: two-hybrid library CCmax; settings: mean of both orientations
T8 chain: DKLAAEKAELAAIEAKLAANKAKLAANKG

APC8191-AA = molecular target: T9, APC8191-AA; assay: two-hybrid library CCmax; settings: mean of both orientations
T9 chain: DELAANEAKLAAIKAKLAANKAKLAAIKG

APC8910-AA = molecular target: T10, APC8910-AA; assay: two-hybrid library CCmax; settings: mean of both orientations
T10 chain: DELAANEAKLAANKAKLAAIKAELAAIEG

APC9096-AA = molecular target: T11, APC9096-AA; assay: two-hybrid library CCmax; settings: mean of both orientations
T11 chain: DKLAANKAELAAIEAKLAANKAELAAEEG

APC9319-AA = molecular target: T12, APC9319-AA; assay: two-hybrid library CCmax; settings: mean of both orientations
T12 chain: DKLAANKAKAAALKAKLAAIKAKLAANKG

O7-bH = molecular target: T13, O7-bH; assay: two-hybrid library CCNG1
T13 chain: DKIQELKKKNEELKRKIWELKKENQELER

O8-bH = molecular target: T14, O8-bH; assay: two-hybrid library CCNG1
T14 chain: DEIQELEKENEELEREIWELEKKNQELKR

O9-bH = molecular target: T15, O9-bH; assay: two-hybrid library CCNG1
T15 chain: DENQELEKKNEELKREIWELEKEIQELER

4H3041-bH = molecular target: T16, 4H3041-bH; assay: two-hybrid library CCNG1
T16 chain: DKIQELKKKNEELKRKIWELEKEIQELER

4H3297-bH = molecular target: T17, 4H3297-bH; assay: two-hybrid library CCNG1
T17 chain: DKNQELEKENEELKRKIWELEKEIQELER

4H3364-bH = molecular target: T18, 4H3364-bH; assay: two-hybrid library CCNG1
T18 chain: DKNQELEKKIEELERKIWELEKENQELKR

4H3381-bH = molecular target: T19, 4H3381-bH; assay: two-hybrid library CCNG1
T19 chain: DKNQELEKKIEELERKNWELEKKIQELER

4H349-bH = molecular target: T20, 4H349-bH; assay: two-hybrid library CCNG1
T20 chain: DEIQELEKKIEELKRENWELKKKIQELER

4H56-bH = molecular target: T21, 4H56-bH; assay: two-hybrid library CCNG1
T21 chain: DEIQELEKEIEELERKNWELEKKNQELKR

4H730-bH = molecular target: T22, 4H730-bH; assay: two-hybrid library CCNG1
T22 chain: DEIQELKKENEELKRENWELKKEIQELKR

4H796-bH = molecular target: T23, 4H796-bH; assay: two-hybrid library CCNG1
T23 chain: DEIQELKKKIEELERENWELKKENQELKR

4H932-bH = molecular target: T24, 4H932-bH; assay: two-hybrid library CCNG1
T24 chain: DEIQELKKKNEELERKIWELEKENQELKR

4H949-bH = molecular target: T25, 4H949-bH; assay: two-hybrid library CCNG1
T25 chain: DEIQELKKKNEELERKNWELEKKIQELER

O7-bN = molecular target: T26, O7-bN; assay: two-hybrid library CCNG1
T26 chain: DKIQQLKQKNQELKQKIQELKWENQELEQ

O8-bN = molecular target: T27, O8-bN; assay: two-hybrid library CCNG1
T27 chain: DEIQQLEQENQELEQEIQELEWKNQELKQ

O9-bN = molecular target: T28, O9-bN; assay: two-hybrid library CCNG1
T28 chain: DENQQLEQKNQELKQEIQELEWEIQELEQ

| Binder | interaction score (APC3645-AA) | interaction score (APC4011-AA) | interaction score (APC4264-AA) | interaction score (APC4436-AA) | interaction score (APC5383-AA) | interaction score (APC6108-AA) | interaction score (APC7099-AA) | interaction score (APC8191-AA) | interaction score (APC8910-AA) | interaction score (APC9096-AA) | interaction score (APC9319-AA) | interaction score (O7-bH) | interaction score (O8-bH) | interaction score (O9-bH) | other results |
| --- | --- | --- | --- | --- | --- | --- | --- | --- | --- | --- | --- | --- | --- | --- | --- |
| DELAAIEAEAAALEAKAAALKAEAAALEG [APC232-AA] | -1.5 | -1.21 | -1.93 | -1.65 | -2.15 | -1.6 | -1.68 | -2.34 | -2.1 | -1.8 | -1.47 | – | – | – | interaction score (APC2405-AA; mean of both orientations): -1.6 |
| DEAAALEAENAALEAELAAIEAKNAALKG [APC2405-AA] | -1.29 | -1.01 | -1.55 | -1.04 | -1.52 | -1.24 | -1.31 | 0.786 | -1.63 | -1.39 | -1.81 | – | – | – | interaction score (APC2405-AA): -1.47 |
| DKNQELKKKIEELKRENWELEKKIQELKR [O6-bH] | – | – | – | – | – | – | – | – | – | – | – | 0.89 | 0.914 | -0.446 | – |
| DKIQELKKKNEELKRKIWELEKEIQELER [4H3041-bH] | – | – | – | – | – | – | – | – | – | – | – | – | – | – | interaction score (4H3041-bH): 0.721; interaction score (4H3297-bH): 0.592; interaction score (4H3364-bH): -1.08; interaction score (4H3381-bH): -0.693; interaction score (4H349-bH): -0.833; interaction score (4H56-bH): 0.679; interaction score (4H730-bH): -0.877; interaction score (4H796-bH): -0.497; interaction score (4H932-bH): -0.092; interaction score (4H949-bH): -0.161 |
| DKIQQLKQKNQELKQKIQELKWENQELEQ [O7-bN] | – | – | – | – | – | – | – | – | – | – | – | – | – | – | interaction score (O7-bN): -1.44; interaction score (O8-bN): 0.737; interaction score (O9-bN): -1.53 |
| DENQELEKEIEELERKNWELKKEIQELER [O5-bH] | – | – | – | – | – | – | – | – | – | – | – | 0.921 | -0.103 | -0.548 | – |
